Laboratory results taken from patent US20260185069.

Assays:
[1] = system: T1, Dn29 large serine recombinase (Desulfotomaculum nigrificans); test: cell_activity; details: HEK293FT, unfused LSR, UMI integration-site mapping
T1 sequence: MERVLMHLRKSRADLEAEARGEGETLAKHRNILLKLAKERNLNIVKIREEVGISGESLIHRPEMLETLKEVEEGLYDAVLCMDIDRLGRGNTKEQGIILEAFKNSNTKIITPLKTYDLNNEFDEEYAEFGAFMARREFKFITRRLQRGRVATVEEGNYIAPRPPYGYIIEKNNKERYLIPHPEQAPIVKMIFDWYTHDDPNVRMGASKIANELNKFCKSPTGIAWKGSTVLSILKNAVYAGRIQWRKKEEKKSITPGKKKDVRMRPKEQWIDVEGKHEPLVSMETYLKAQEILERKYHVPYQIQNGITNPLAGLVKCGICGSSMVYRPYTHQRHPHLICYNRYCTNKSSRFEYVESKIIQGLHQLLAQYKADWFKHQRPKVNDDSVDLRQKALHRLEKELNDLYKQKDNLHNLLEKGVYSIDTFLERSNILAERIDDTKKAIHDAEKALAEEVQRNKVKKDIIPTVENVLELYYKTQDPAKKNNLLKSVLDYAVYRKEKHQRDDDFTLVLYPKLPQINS

[2] = molecular target: Dn29-XTEN32-(GGSS)2-dCas9 fusion (synthetic construct) (UniProt Q99ZW2); test: cell_activity; details: HEK293FT, attD donor plasmid, single gRNA near attH1, ddPCR; specificity about 78% of UMIs with guide 3

Dn29 attH1 pseudosite (chr10:21,130,404, NEBL intron)
activity (% of integrations at site) [1]: 30 | activity (% integration) [2]: < 30
